Test: soluble on expression in E. coli; label from the status in PepcDB or PDB records

With “MSKDYRSLANLSPFELKDELIKVASGKANRLMLNAGRGNPNFLATTPRRAFFRLGLFAAAESELSYSYMTVGVGGLAKLDGIEGRFERFIAEHRDQEGVKFLGKSLSYVRDQLGLDPAAFLHEMVDGILGCNYPVPPRMLTVSEQIVRQYIVREMAGGAVPPESVDLFAVEGGTAAMAYIFESLRISGLLKAGDKVAIGMPVFTPYIEIPELAQYDLKEVPIHADPDNGWQYSDAELDKLKDPDVKIFFCVNPSNPPSVKMDQRSLDRVRAIVAEQRPDLLILTDDVYGTFADEFQSLFSVCPRNTLLVYSFSKYFGATGWRLGVIAAHKDNVFDHALSQLPESAKKALDHRYRSLLPDVRSLKFIDRLVADSRVVALNHTAGLSTPQQVQMVLFSLFALMDEADAYKQALKQLIRRREATLYRELGMPPLENPNSVNYYTLIDLQNVTCRLYGEAFSQWAVQQSSTGDMLFRVADETGIVLLPGRGFGSDRPSGRASLANLNEYEYAAIGRALRRLADELYEQYKALGKEKLAAALEHHHHHH” as the sequence, how does the “soluble on expression in E. coli” value read?
The value was “soluble”.

With “MEDHSSSIAVHKLDGDLLLRTAEIGDADMIAAYFQSNRDYLKPFEPKREEAFFSVNGWLQKLIKLNELHRMGLGYYCLLIHVDT” as the sequence, how does the “soluble on expression in E. coli” value read?
Its value is “not soluble”.

With “MSRLVLLISLVIVVASAAAPQCEVCKKVLDDVMAKVPAGDKSKPDAIGKVIREHCETTRNKENKFCFYIGALPESATSIMNEVTKPLSWSMPTEKVCLEKLKGKDAQICELKYDKPLDWKTIDLKKMRVKELKNILGEWGEVCKGCTEKAELIKRIEELKPKYVKEEL” as the sequence, how does the “soluble on expression in E. coli” value read?
The value was “not soluble”.

For “SELDAKLNKLGVDRIAISPYKQWTRGYMEPGNIGNGYVTGLKVDAGVRDKSDNNVLDGIVSYDRAETKNAYIGQINMTTAS”, which “soluble on expression in E. coli” value is on record?
Its value is “soluble”.

With “MPSNIRESDASCLEMIRSIIRSTADDNSKWVEIFVDFENAQPTDEEREIYNMAEEVLNDCDLVLADVSSYGNGCYAERNQLKNDSDTQALKVLMTKLEPFVARTCSYYEHVAKIEKIVPIILWELSSGPLPLEEQLANKQSIAKQFARLIGFVLDFDVVKMRTAQITNDYSYYRRAKHIVYQDFEDQGVPELPQVQMFLCEGNPMLKALCNGVDSYMQTHQSLPINNTTDVFVTIINVCRFMLANDECLARLTDSSKHLCCRVMTGLVILFDHVDQNGAFVSNSSIDMRDVVRLIKLNTTPEQSDCLLAGLRFTTKHYNDSSTPKSLRHLIEVK” as the sequence, how does the “soluble on expression in E. coli” value read?
Its value is “soluble”.

Which “soluble on expression in E. coli” value does the source give for “MGSDKIHHHHHHMKIIILGAGQVGGTLAENLVGENNDITIVDSDKNKLRSLQDKYDLRVVVGHGAHPDVLREAGAEDADMLIAVTNSDECNMSACQIAYTLFGTPTKIARIRSEQYLHMQERLFIDSETKNSDNRTRGGFVIDELIAPEQLVTSYIQRLVEYPGALQVLEFAEGKLSLVAVRAYYGGPLVGNALAALREHMPNIDTRVAAIFRQGRPIMPRGTTIIEADDEVFFVADSRHIRAVMSEMQKLDNSYRNIMIAGGGNIGLGLAKKLERNHSVKLIEHKAERAEALSEKLQNTTVFCGDASDQELLLEEHIDQTDVFIAVTNDDEANIMSALLAKRMGAKKVMVLIQREAYVDIVQEANIDIAISPQQATISALLTHIRQGDICNVYSLRRGAAEAIEAIAHGDPSTSKVVGKQIGEIRLPPGTTIGAIVRNDEVLMAHDKTVIEQGDHVILFLVNKKFIGEVERLFQPSAFFF” here?
The value was “not soluble”.

For “MHHHHHHSSGLVPRGSGMKETAAAKFERQHMDSPDLGTDDDDKMKLQSPEFQSLFTEGLKSLTELFVKENHELRIAGGAVRDLLNGVKPQDIDFATTATPTQMKEMFQSAGIRMINNRGEKHGTITARLHEENFEITTLRIDVTTDGRHAEVEFTTDWQKDAERRDLTINSMFLGFDGTLFDYFNGYEDLKNKKVRFVGHAKQRIQEDYLRILRYFRFYGRIVDKPGDHDPETLEAIAENAKGLAGISGERIWVELKKILVGNHVNHLIHLIYDLDVAPYIGLPANASLEEFDKVSKNVDGFSPKPVTLLASLFKVQDDVTKLDLRLKIAKEEKNLGLFIVKNRKDLIKATDSSDPLKPYQDFIIDSREPDATTRVCELLKYQGEHCLLKEMQQWSIPPFPVSGHDIRKVGISSGKEIGALLQQLREQWKKSGYQMEKDELLSYIKKT”, which “soluble on expression in E. coli” value is on record?
The value was “soluble”.

For “MHKTIAVLLGIVCFLPVMAKAGGAETDATDASDVKTLFFNHDDRVPVADPTQSPWDAIGQLETASGNLCTATLISPHIALTAGHCLLTPPKGKPDKAVALRFVARKGVWRYEIHGIEGRVEPSLGRRLKADGDGWIVPPAAASWDFGLVILRYPPSGITPVPLFTGDKAALTAALKAADRKVTQSGYPEDHLNALYSHQDCVVTGWAQNAVLSHQCDTLPGDSGSPLLLHTDSGWQLIGVQSSAPAAKDRWRADNRAISVTGFRDKLKALAQD”, which “soluble on expression in E. coli” value is on record?
The value was “not soluble”.

With “METRQASGQLAALVRPNDVNSGSLLFPSKEPGFYVEAPRLKTDVAIDVSGPIARVKVTQRFQNPSQGWIEGTYVFPLPDNSAVDALKMQIGDRFIEGQIKPRQEAREIYEQAKAEGKKTALLEQQRPNIFTNQVANIGPGEEIVVQIEYQQTVHQSGGEFSLRFPMVVAPRYNPAPIVQTVDFNNGAGFAIPRDPVQNREKIEAPVLDPRENARINPVSLTVNLKAGFPLGEVKSSFHDVDIGQDGDQARTISLKGDAVPADKDFELTWKAAPGKTPSAGLFREAIDGKTYLLAFVTPPTAPDAAAPSKREVVFVIDNSGSMSGQSIEQARQSLALAISRLNPNDRFNVIRFDDTMTDYFKGLVAATPDNREKAVAYVRSLTADGGTEMLPALEDALRNQGPVASGALRQVVFLTDGAIGNEQQLFQEITANRGDARVFTVGIGSAPNTYFMTKAAEVGRGTFTQIGSTDQVASRMSELFAKLQNPTMTDIAASFEGIEAEDITPNPMPDLYSGEPVVLTAELPQDKAAGKLQIVGKTGDQPWRVEMDIANAAVGSGISKLWARRKIDDLEARAYERQDPAALDKDIEAVALAHHLVSRVTSLVAVDVTPSRPANEPLGSAKLPLNLPEGWDFGKVFGEKAVPSGGAERHGAATPAGSAEPQRAAAATQDLAASPEIANLMAAAPTAKAATLIAQKSSTVNLPQTATRADEQIMRGLEHHHHHH” as the sequence, how does the “soluble on expression in E. coli” value read?
Its value is “soluble”.

Which “soluble on expression in E. coli” value does the source give for “MQPLFTQERRIFHKKLLDGNILATNNRGVVSNADGSNTRSFNIAKGIADLLHSETVSERLPGQTSGNAFEAICSEFVQSAFEKLQHIRPGDWNVKQVGSRNRLEIARYQQYAHLTALAKAAEENPELAAALGSDYTITPDIIVTRNLIADAEINRNEFLVDENIATYASLRAGNGNMPLLHASISCKWTIRSDRAQNARSEGLNLVRNRKGRLPHIVVVTAEPTPSRISSIALGTGEIDCVYHFALYELEQILQSLNYEDALDLFYIMVNGKRLKDISDLPLDLAV” here?
The value was “soluble”.

With “MSTSNAQSGRAAAIARRNAQVKGKGYTASAAPAAPRKPAAPVAEPVVAAAPAPSQPSRSRRKVSVAPTATPAASAAGREAAKLKRQQQKNGKSSAGAANAMPHPKAKAKQKPEEPIVEPRQAKAEKPTKRSERRTGVKPQVASQQPSGRLQSKAYRKAQAKGKAGQEAFKSNGSSQSGAKAKLANPDASTREIAQQVRAERCAQGKTCSTGGSRPMRKRRNAKEAPQKVGESQTLHGQSVSGTQVGQGEKKMTGSESGACQLVSGTEYLGAEEFSKNCDVQPTPQPAKVTQTQTTRGQVVSGSTKVGRSDKMTGNETGTCSAITGTEYLPADQSKMYCGETPAKSKATGFSVMSQATQKSEQKVTGGDSRKSQSTTFKPKNPASAPHKVMPSQTAKGNTTTGSQVGRLESVTGGERGSCHAVTGTGYQGAEEAKACDMPMTETADKVTASGTAGGQKVTGDRSGAYYGMTGAEAGDCKTITGTSYTGTEQFQFCSVDEQNEMKVRQRKGANPSISGVQPGPQGLTGAQKGACELVTGSHYQGGDQTAMVCDSTNAAAPGESDFPAMIGQAQPAFSTNEVEPMVDEGSKITGDGWDRGSKVTGTDGPWAAQRNASIRGVAGQSPMGASQYRPVNNEVPMSPITGSSGNTDTGAKVTLSGGARA” as the sequence, how does the “soluble on expression in E. coli” value read?
Its value is “not soluble”.

Which “soluble on expression in E. coli” value does the source give for “MKRSHLENALNYALENSETAYNEMFLECDKQFILESWLNDFDLTKDYNETMHLVFSIKDKPDEETMQGLLHSTWESLKIRLPEYKFALVPHAHQDHAHIHCFINKTNQLTRRRLRFKGHEDCKEFFNELRSEFAYRLNDHLLSEEYLYVNEPKLKELDNIKQQLQDLEKEEKALEQIKSPQDEWDLNKALQSEYLQELKYKNKAKALDIQNNHSTPLKQKISEFKIALFNHKDTSDDEKEQLDIDRIDKRKPVSEHLKNTNKHELYELLGFYQKELDKKQNHSAFKNFAILNGLDRDFERETNGYSVLKKKEMLLNKLEHLDKRLLDKNSHLLLAQ” here?
Its value is “not soluble”.

For “MGSDKIHHHHHHMAAWRTVVIATSCHLRVRDRQLVIESREGERTQLPLADIGVVIVENPQVTLSAALLSALAQEGTALMSCDSSHLPDGVFAPFGTHSRHTRAARVQAVWSEPFKKRCWQKIVRAKVSSQAEVLRRVGAEDAARRLENLVGKVTSGDTTGVEAQAAQVYWRSLFVNFKRWDGGLDARNGGLNYGYAVLRGALGRAIAGAGLIPAFGLHHAGELNSFNLADDLIEPFRPFVDLLVWGLFLERTGDDPLTREERMRIAQILGESCIMTERYETLLSATQIIARSLVSAGEQKESRRLILPWMGEDDVQGEVYEADGDV”, which “soluble on expression in E. coli” value is on record?
Its value is “not soluble”.

Which “soluble on expression in E. coli” value does the source give for “MAHHHHHHMPRRFVAEYVTKHLCGVRVLESFAETSTATGVIGTHNGSFHCDEAMACGLLRCSQNFGQSNILRSRDPNALERCNIVVDVGSVYDEATLRFDHHQPSFHDTMKTPKAAYQTRLSSAGLVYKHFGREIIQGYVESALASPYRVKLLDATKWGTDKKKLSEQELDILFDIVYKNFVEHIDGIDNGVNAYGPAETEGEEGAVPVSSSSPSCVKKYNVSTTLSARIGNLMPWWNEEGNGKVENENAAFLQAMELATSEFFDSVHYHVFAWMPARGIVRAAFLEAMNVHPSGRIVVFKDCFCPWKEHLLELEEEHGKVGHVLYVLFADKKGWRVQAVPKEASGFENRKSLPWRGLRDEELSQASGIEGGIFVHVSGFIGGNKTYEGALQMAVKALTVVN” here?
Its value is “not soluble”.

For “MSLGNTGVASADYLTAPFYNPALVASFEEHDDFGLLLPAIGVNVRDSDESLATIDDLQDSIDEFEAAPIPSPGQIDQLNRYLDDLQGNAPLTASSSLGLAVAIPTKRFSTNLFARGYLELIARPNIADYLSTGPGNEVADTKKRYEDSSVTMAAFGYVEYGAALAKEFEIKEQRISFGVTPKIQQLTTYYVVPTVADFELDDYEESEHKESAFNLDFGVVWLKDKFQVALAVKDLLSQEIDLKDKNGQKQDVYELNTQVSAGVAYRSDFFTAAMDLDLTKQERFKSLDDETQFVRFGVEGNAWGWAQLRAGYEIDLEDTVENAFTAGIGISPFDVVSLDIAGSYAGENQFGVSGNLAFTFEGHHHHHH”, which “soluble on expression in E. coli” value is on record?
Its value is “not soluble”.

With “MNLQAREGAPLNRYYDPYFACDAVKLLPGEYFASGEDLVIVTVLGSCVSVCLRDPLNGIAGMNHFMLPERGLGGDPASPSARYGSHAMELLINRMLALGASRERLQAKVFGGGSVLRQISAAIGQRNVEFTLDYLATERIPLLASDVLEAFPRKIYFFPRNGRVLVKSLVELKNDTVLQRERDYRRRIDRNADGGPIDLF” as the sequence, how does the “soluble on expression in E. coli” value read?
The value was “not soluble”.

With “MDLVKDVKRELSFSELKGKRVSIDGYNALYQFLAAIRQPDGTPLMDSQGRVTSHLSGLFYRTINILEEGVIPIYVFDGKPPEQKSEELERRRKAKEEAERKLERAKSEGKIEELRKYSQAILRLSNIMVEESKKLLRAMGIPIVQAPSEGEAEAAYLNKLGLSWAAASQDYDAILFGAKRLVRNLTITGKRKLPNKDVYVEIKPELIETEILLKKLGITREQLIDIGILIGTDYNPDGIRGIGPERALKIIKKYGKIEKAMEYGEISKKDINFNIDEIRGLFLNPQVVKPEEALDLNEPNGEDIINILVYEHNFSEERVKNGIERLTKAIKEAKGASRQTGLDRWF” as the sequence, how does the “soluble on expression in E. coli” value read?
The value was “soluble”.
